Patent US6713276B2, “Modulation of Aβ levels by β-secretase BACE2” (Scios, Inc., priority 2000, dated 2004)

How the values were obtained:
[1] = test system: APP751sw processing in HEK293T cells; assay: co-transfection with APP751sw in HEK293T cells, ELISA of conditioned medium; format: cell-based, human
Experimental: (§1) Expression vectors containing BACE and BACE2 cDNAs were transfected into HEK293T cells in the presence of APP751sw or CT100 (Shoji et al., Science 258: 126-129 [1992]; Lichtenthaler et al., Proc. Natl. Acad. Sci. USA 96: 3053-3058 [1999]). Transfections were performed in 24 well plates using Lipofectamine Plus (Gibco/BRL, Bethesda, Md.) and DNA concentrations were kept constant by including non-specific DNA. Expression plasmids were tested for BACE and BACE2 expression by Western blotting. Cell culture supernatants were collected 48 hours and 72 hours post-transfection, and assayed for α-NTF, β-NTF and Aβ formation. β-NTF measurement was performed as described below. α-NTF was captured like β-NTF but was detected with biotinylated 2H3 (Johnson-Wood et al., Proc. Nati. Acad. Sci. USA 94: 1550-1555 [1997]). Aβ levels were determined by an ELISA using monoclonal antibodies 266 for capture and biotinylated 3D6 for detection (see Johnson-Wood et al., [1997] ibid for antibody epitope description). Aβ42, in contrast, was captured using 21F 12 and detected with biotinylated 3D6. Cell extracts prepared 72 hour post-transfection were separated by SDS-PAGE (Novex) and probed with CT695 (Zymed) for APP and CTFs as well as with an Aβ specific monoclonal antibody WO2 (kindly provided by K. Beyreuther; Ida et al., J. Biol. Chem. 271: 22908-22914 [1996]). Alternatively, co-transfection experiments using APP751sw and BACE or BACE2 were performed in the human neuroblastoma cell line, SK-N-MC, available from the American Type Culture Collection (ATCC).
Given the ability of BACE2 to cleave APP at the β-secretase site in vitro, we investigated the role of BACE2 in HEK293T cells relative to BACE. Variable amounts of BACE2 or BACE expression plasmids were co-transfected with constant amount of DNA encoding APP751sw substrate cDNA. Cell supernatants were collected 48 hours or 72 hours post-transfection and analyzed for α-NTF, β-NTF, total Aβ and Aβ42 as described in Genenral Methodology. Expression of APP751 sw alone led to a significant increase in β-NTF, α-NTF, total Aβ and Aβ42 (FIGS. 2a-d) compared to mock-transfected cells. […] This was most likely due to the fact that overexpressed APP751sw was in excess and was already very efficiently cleaved by endogenous BACE (compare mock versus APP751 sw alone). BACE effects on Aβ formation have been reported to be variable (Vassar et al., [1999] ibid; Sinha et al,[1999] ibid; Hussain et al., [1999] ibid; Yan et al, [1999] ibid; Lin et al,[2000] ibid) and thus it appears that additional factors such as γ-secretase might become limiting.
In an independent experiment, we addressed whether BACE2 competed with the ability of BACE to cleave APP at the β-secretase site. HEK293T cells were co-transfected with constant amounts of APP751sw and BACE, and increasing levels of BACE2. β-NTF and Aβ levels were then measured in culture supernatant (FIG. 3). […] BACE and BACE2 appeared to compete for the substrate and thus the effect on β-NTF might rather be steric. In particular, if BACE2 is a less efficient β-secretase in competing with BACE for substrate, it would reduce the overall β-secretase cleavage efficiency (see also FIG. 4). However, this reduction is insufficient to account for the Aβ reduction with BACE2.

[2] = test system: CT100 (C-terminal 100 amino acids of APP) processing in HEK293T cells; assay: co-transfection with CT100 in HEK293T cells, ELISA, Western blot, pulse-chase; format: cell-based, human; conditions: for CTFs derived from CT100 (α-like CTF): HEK293 cells, CT100, Western blot and pulse-chase 90 minutes
Experimental: as §1, with “Alternatively, co-transfection experiments using APP751sw and BACE or BACE2 were performed in the human neuroblastoma cell line, SK-N-MC, available from the American Type Culture Collection (ATCC).” left out
This effect prompted investigation into whether β-secretase cleavage was required for Aβ suppression. The effects of BACE2 on the metabolism of the C-terminal 100 amino acids of APP (CT100), a construct that mimics prior β-secretase cleavage (Shoji et al., Science 258: 126-129 [1992]), was analyzed. […] Cells were readiolabeled with ^35S-methionine/cysteine for 15 minutes after which the medium containing radiolabel was removed and replaced with standard medium. […] Over this 90-minute period, samples were taken and assessed for CTFs by immunoprecipitation. […]

Molecule	Aβ production (total Aβ, Aβ42) with aspartate mutant ([1]; co-transfected with APP751sw or CT100)	β-NTF formation in the presence of co-transfected BACE ([1]; constant APP751sw and BACE)	CTFs derived from CT100 (α-like CTF) [2]	Aβ42 in conditioned medium ([1]; co-transfected with APP751sw)	total Aβ in conditioned medium ([1]; co-transfected with APP751sw)	α-NTF levels in conditioned medium ([1]; co-transfected with APP751sw)	β-NTF levels in conditioned medium ([1]; co-transfected with APP751sw)	total OD of α-NTF plus β-NTF ([1]; co-transfected with APP751sw, APP751sw alone ~2.59) [OD]	Aβ levels in the presence of co-transfected BACE ([1]; constant APP751sw and BACE, increasing BACE2)	total Aβ and Aβ42 levels in conditioned medium ([2]; HEK293T, co-transfected with CT100)
BACE2 D110A: single D110A BACE2 mutant of a critical aspartate residue, made by site-directed mutagenesis (protein) ALEPALASPAGAANFLAMVDNLQGDSGRGYYLEMLIGTPPQKLQILVATGSSNFAVAGTPHSYIDTYFDTERSSTYRSKGFDVTVKYTQGSWTGFVGEDLVTIPKGFNTSFLVNIATIFESENFFLPGIKWNGILGLAYATLAKPSSSLETFFDSLVTQANIPNVFSMQMCGAGLPVAGSGTNGGSLVLGGIEPSLYKGDIWYTPIKEEWYYQIEILKLEIGGQSLNLDCREYNADKAIVDSGTTLLRLPQKVFDAVVEAVARASLIPEFSDGFWTGSQLACWTNSETPWSYFPKISIYLRDENSSRSFRITILPQLYIQPMMGAGLNYECYRFGISPSTNALVIGATVMEGFYVIFDRAQKRVGFAASPCAEIAGAAVSEISGPFSTEDVASNCVPAQSLSEPILWIVSYALMSVCGAILLVLIVLLLLPFRCQRRPRDPEVVNDESSLVRHRWK	clearly reversed the suppression of Aβ production	compete as well if not slightly more effectively with BACE to form β-NTF	unable to convert APP CT100 to an α-CTF-like fragment	–	–	–	–	–	–	–
BACE2: human aspartyl protease, close homolog of BACE (SEQ ID NO: 2), expressed from pcDNA3.1(−)/BACE2 in transfected cells (protein) MGALARALLLPLLAQWLLRAAPELAPAPFTLPLRVAAATNRVVAPTPGPGTPAERHADGLALALEPALASPAGAANFLAMVDNLQGDSGRGYYLEMLIGTPPQKLQILVDTGSSNFAVAGTPHSYIDTYFDTERSSTYRSKGFDVTVKYTQGSWTGFVGEDLVTIPKGFNTSFLVNIATIFESENFFLPGIKWNGILGLAYATLAKPSSSLETFFDSLVTQANIPNVFSMQMCGAGLPVAGSGTNGGSLVLGGIEPSLYKGDIWYTPIKEEWYYQIEILKLEIGGQSLNLDCREYNADKAIVDSGTTLLRLPQKVFDAVVEAVARASLIPEFSDGFWTGSQLACWTNSETPWSYFPKISIYLRDENSSRSFRITILPQLYIQPMMGAGLNYECYRFGISPSTNALVIGATVMEGFYVIFDRAQKRVGFAASPCAEIAGAAVSEISGPFSTEDVASNCVPAQSLSEPILWIVSYALMSVCGAILLVLIVLLLLPFRCQRRPRDPEVVNDESSLVRHRWK	–	reduced the ability of BACE to form β-NTF in a dose-dependent manner	accumulation of the α-like CTF	striking reduction of total Aβ and Aβ42 to levels found in mock-transfected cells	striking reduction of total Aβ and Aβ42 to levels found in mock-transfected cells	slightly higher levels of α-NTF in conditioned medium from BACE2 versus BACE transfected cells	the effect on β-NTF levels was very similar to that of BACE	~2.5	dramatic dose-dependent reduction in Aβ levels	dramatic suppression of total Aβ as well as Aβ42 levels
